The RNAGym collection of RNA variant scans (doi:10.7554/elife.80360)

B1: CPEB3 Ribozyme (parent)
chain: GGGGGCCACAGCAGAAGCGUUCACGUCGCGGCCCCUGUCAGAUUCUGGUGAAUCUGCGAAUUCUGCUGU

Variants of: B1
Assay: self-cleavage, relative activity (ratio to wild type); higher = more cleavage; co-transcriptional

Variant	self-cleavage
GGGGGCCACAGCAGAAGCGUUCACGUCGCGGCCCCUGUCAGAUUCUGGUGAAUUUGUGAAUUCUGCUGU [C54U C57U]	0.385
GGGGGCCACAGCAGAAGCGUUCACGUCGCGGCCCCUGUCAGAUUCUGGUGAAUGCGCGAAUUCUGCUGU [C54G U55C]	0.381
GGGGGCCACAGCAGAAGCGUUCACGUCGCGGCCCCUGUCAGAUUCUGGUGAAUUUGCGAAGUCUGCUGU [C54U U61G]	0.779
GGGGGCCACAGCAGAAGCGUUCACGUCGCGGCCCCUGUCAGAUUCUGGUGAAUUUGCGAAAUCUGCUGU [C54U U61A]	0.933
GGGGGCCACAGCAGAAGCGUUCACGUCGCGGCCCCUGUCAGAUUCUGGUGAAUUUGCGGAUUCUGCUGU [C54U A59G]	1.04
GGGGGCCACAGCAGAAGCGUUCACGUCGCGGCCCCUGUCAGAUUCUGGUGAAUUUGCGUAUUCUGCUGU [C54U A59U]	0.883
GGGGGCCACAGCAGAAGCGUUCACGUCGCGGCCCCUGUCAGAUUCUGGUGAAUUUGCGAAUUCUGCUUU [C54U G68U]	1.06
GGGGGCCACAGCAGAAGCGUUCACGUCGCGGCCCCUGUCAGAUUCUGGUGAAUUUGCGAAUUCUGCUCU [C54U G68C]	1.02
GGGGGCCACAGCAGAAGCGUUCACGUCGCGGCCCCUGUCAGAUUCUGGUGAAUUUGCGAAUUCUGCUAU [C54U G68A]	1.02
GGGGGCCACAGCAGAAGCGUUCACGUCGCGGCCCCUGUCAGAUUCUGGUGAAUGUGCGAAUUUUGCUGU [C54G C63U]	0.797
GGGGGCCACAGCAGAAGCGUUCACGUCGCGGCCCCUGUCAGAUUCUGGUGAAUGUGCGAAUUGUGCUGU [C54G C63G]	0.514
GGGGGCCACAGCAGAAGCGUUCACGUCGCGGCCCCUGUCAGAUUCUGGUGAAUAUGCGAAUUCUUCUGU [C54A G65U]	0.519
GGGGGCCACAGCAGAAGCGUUCACGUCGCGGCCCCUGUCAGAUUCUGGUGAAUAUGCGAAUUCUACUGU [C54A G65A]	0.629
GGGGGCCACAGCAGAAGCGUUCACGUCGCGGCCCCUGUCAGAUUCUGGUGAAUUUGCGAAUUAUGCUGU [C54U C63A]	0.797
GGGGGCCACAGCAGAAGCGUUCACGUCGCGGCCCCUGUCAGAUUCUGGUGAAUUUGCGAAUUGUGCUGU [C54U C63G]	0.859
GGGGGCCACAGCAGAAGCGUUCACGUCGCGGCCCCUGUCAGAUUCUGGUGAAUAUGCGAACUCUGCUGU [C54A U61C]	0.44
GGGGGCCACAGCAGAAGCGUUCACGUCGCGGCCCCUGUCAGAUUCUGGUGAAUAUGCGAAGUCUGCUGU [C54A U61G]	0.415
GGGGGCCACAGCAGAAGCGUUCACGUCGCGGCCCCUGUCAGAUUCUGGUGAAUAUGCGAAAUCUGCUGU [C54A U61A]	0.512
GGGGGCCACAGCAGAAGCGUUCACGUCGCGGCCCCUGUCAGAUUCUGGUGAAUGUGCGCAUUCUGCUGU [C54G A59C]	0.478
GGGGGCCACAGCAGAAGCGUUCACGUCGCGGCCCCUGUCAGAUUCUGGUGAAUGUGCGGAUUCUGCUGU [C54G A59G]	0.957

Variant	self-cleavage
GGGGGCCACAGCAGAAGCGUUCACGUCGCGGCCCCUGUCAGAUUCUGGUGAAUGUGAGAAUUCUGCUGU [C54G C57A]	0.348
GGGGGCCACAGCAGAAGCGUUCACGUCGCGGCCCCUGUCAGAUUCUGGUGAAUGUGGGAAUUCUGCUGU [C54G C57G]	0.274
GGGGGCCACAGCAGAAGCGUUCACGUCGCGGCCCCUGUCAGAUUCUGGUGAAUUAGCGAAUUCUGCUGU [C54U U55A]	0.924
GGGGGCCACAGCAGAAGCGUUCACGUCGCGGCCCCUGUCAGAUUCUGGUGAAUUCGCGAAUUCUGCUGU [C54U U55C]	0.888
GGGGGCCACAGCAGAAGCGUUCACGUCGCGGCCCCUGUCAGAUUCUGGUGAAUUUGCGAAUUCUACUGU [C54U G65A]	0.884
GGGGGCCACAGCAGAAGCGUUCACGUCGCGGCCCCUGUCAGAUUCUGGUGAAUUUGCGAAUUCUCCUGU [C54U G65C]	0.561
GGGGGCCACAGCAGAAGCGUUCACGUCGCGGCCCCUGUCAGAUUCUGGUGAAUUUGCGAAUUCUGCAGU [C54U U67A]	0.993
GGGGGCCACAGCAGAAGCGUUCACGUCGCGGCCCCUGUCAGAUUCUGGUGAAUUUGCGACUUCUGCUGU [C54U A60C]	0.211
GGGGGCCACAGCAGAAGCGUUCACGUCGCGGCCCCUGUCAGAUUCUGGUGAAUUUGCGAUUUCUGCUGU [C54U A60U]	0.468
GGGGGCCACAGCAGAAGCGUUCACGUCGCGGCCCCUGUCAGAUUCUGGUGAAUUUGCGAAUUCUGUUGU [C54U C66U]	0.975
GGGGGCCACAGCAGAAGCGUUCACGUCGCGGCCCCUGUCAGAUUCUGGUGAAUUUGCGAAUUCUGAUGU [C54U C66A]	0.845
GGGGGCCACAGCAGAAGCGUUCACGUCGCGGCCCCUGUCAGAUUCUGGUGAAUUUGCGAAUUCUGGUGU [C54U C66G]	0.837
GGGGGCCACAGCAGAAGCGUUCACGUCGCGGCCCCUGUCAGAUUCUGGUGAAUGUGCGAAUUCUGCUCU [C54G G68C]	0.947
GGGGGCCACAGCAGAAGCGUUCACGUCGCGGCCCCUGUCAGAUUCUGGUGAAUGUGCGAAUUCUGCUAU [C54G G68A]	0.99
GGGGGCCACAGCAGAAGCGUUCACGUCGCGGCCCCUGUCAGAUUCUGGUGAAUACGCGAAUUCUGCUGU [C54A U55C]	0.656
GGGGGCCACAGCAGAAGCGUUCACGUCGCGGCCCCUGUCAGAUUCUGGUGAAUAAGCGAAUUCUGCUGU [C54A U55A]	0.743
GGGGGCCACAGCAGAAGCGUUCACGUCGCGGCCCCUGUCAGAUUCUGGUGAAUAGGCGAAUUCUGCUGU [C54A U55G]	0.796
GGGGGCCACAGCAGAAGCGUUCACGUCGCGGCCCCUGUCAGAUUCUGGUGAAUGUCCGAAUUCUGCUGU [C54G G56C]	0.43
GGGGGCCACAGCAGAAGCGUUCACGUCGCGGCCCCUGUCAGAUUCUGGUGAAUGUACGAAUUCUGCUGU [C54G G56A]	0.658
